Experimental data published in article PMC12415261 (Proceedings of the National Academy of Sciences of the …, 2025).

B4: Deglycosylated BMP6 (BMP6 treated with PNGaseF) (ligand, human, UniProt P22004 375-513, looked up)
chain: SASSRRRQQSRNRSTQSQDVARVSSASDYNSSELKTACRKHELYVSFQDLGWQDWIIAPKGYAANYCDGECSFPLNAHMNATNHAIVQTLVHLMNPEYVPKPCCAPTKLNAISVLYFDDNSNVILKKYRNMVVRACGCH
notes: BMP6, human, mature domain of the precursor, N-linked glycosylation completely removed with PNGaseF; disulfide-linked dimer; Same protein as Dm1 after PNGaseF treatment; also called dgBMP6; PNGaseF treated BMP6; source: bought: RnD (Cat. No. 507-BP), produced from CHO cells; deglycosylated with rapid PNGase F (New England Biolabs), 15 min at 50 C
B6: Recombinant human BMP6 (mammalian expressed, glycosylated) (ligand, UniProt P22004 375-513, looked up)
chain: SASSRRRQQSRNRSTQSQDVARVSSASDYNSSELKTACRKHELYVSFQDLGWQDWIIAPKGYAANYCDGECSFPLNAHMNATNHAIVQTLVHLMNPEYVPKPCCAPTKLNAISVLYFDDNSNVILKKYRNMVVRACGCH
modifications: N-linked glycosylation at Asn454 (prehelix loop)
notes: BMP6, human, mature domain of the precursor (residues 410 to 513 resolved in the cryoEM maps, 82.3% of the mature domain); disulfide-linked dimer; also called Bone Morphogenetic Protein 6; source: bought: RnD (Cat. No. 507-BP), produced from CHO cells
B7: Recombinant human BMP6, mammalian expressed (glycosylated) (ligand, UniProt P22004 375-513, looked up)
chain: SASSRRRQQSRNRSTQSQDVARVSSASDYNSSELKTACRKHELYVSFQDLGWQDWIIAPKGYAANYCDGECSFPLNAHMNATNHAIVQTLVHLMNPEYVPKPCCAPTKLNAISVLYFDDNSNVILKKYRNMVVRACGCH
modifications: N-linked glycosylation at Asn454 (prehelical loop)
notes: mature domain of human BMP6; residues 410 to 513 resolved in the maps (82.3% of mature domain); Dimer held together by a cystine knot; also called glycosylated BMP6; source: bought: RnD (Cat. No. 507-BP), produced from CHO cells

Legend:
[1] = target: ActRIIB1-Fc (trap with a single ActRIIB extracellular domain) (human); experiment: SPR; Cytiva T-200; trap captured through its Fc on a CM4 chip with immobilised goat antihuman Fc-specific IgG (about 3,000 RU); ligand flowed, five-step twofold dilution from 5 nM; 10 mM HEPES pH 7.4, 350 mM NaCl, 3.4 mM EDTA, 0.005% P-20; 25 C; 300 s association and dissociation, 30 uL/min; 1:1 fit with mass transport limitation; triplicate
ActRIIB1-Fc (human) = experiment: SPR; traps captured by goat antihuman Fc IgG on a CM4 chip; ligand flowed, five-step twofold dilution from 5 nM; HBS-EP+ (10 mM HEPES pH 7.4, 350 mM NaCl, 3.4 mM EDTA, 0.005% P-20), 25 °C; 1:1 fit with mass transport limitation
[2] = target: B6; experiment: SPR; Cytiva T-200; trap captured through its Fc on a CM4 chip with immobilised goat antihuman Fc-specific IgG (about 3,000 RU); ligand flowed, five-step twofold dilution from 5 nM; 10 mM HEPES pH 7.4, 350 mM NaCl, 3.4 mM EDTA, 0.005% P-20; 25 C; 300 s association and dissociation, 30 uL/min; 1:1 fit with mass transport limitation; triplicate; conditions: both partners purified
[3] = target: B4; experiment: as above; conditions: both partners purified
[4] = target: T1, ALK3-ActRIIB-Fc (heterodimeric trap) (human, UniProt P36894 24-152; Q13705 19-133); experiment: as above; conditions: both partners purified
T1 construct: signal peptide in the construct; ActRIIB, human, extracellular domain, residues 1 to 133, fused to an IgG1 Fc domain; also called ALK3-IIB-Fc; ActRIIB-ALK3; source: SEC Superdex 200 increase; not shown: Fc (IgG1), C-terminal, kept; copies: 1 + 1

[5] = target: T2, ALK2-ActRIIB-Fc (heterodimeric trap) (human, UniProt Q04771 21-123; Q13705 19-133); experiment: as above; conditions: both partners purified
T2 construct: signal peptide in the construct; ActRIIB, human, extracellular domain, residues 1 to 133, fused to an IgG1 Fc domain; also called ALK2-IIB-Fc; ActRIIB-ALK2; source: SEC Superdex 200 increase; not shown: Fc (IgG1), C-terminal, kept; copies: 1 + 1

ALK3-ActRIIB-Fc = target: T3, ALK3-ActRIIB-Fc (human, UniProt P36894 24-152; Q13705 19-133); experiment: SPR; traps captured by goat antihuman Fc IgG on a CM4 chip; ligand flowed, five-step twofold dilution from 5 nM; HBS-EP+ (10 mM HEPES pH 7.4, 350 mM NaCl, 3.4 mM EDTA, 0.005% P-20), 25 °C; 1:1 fit with mass transport limitation; conditions: both partners purified
T3 construct: signal peptide in the construct; extracellular domain of human ActRIIB, residues 1 to 133; also called heterodimeric trap; ActRIIB-ALK3; source: CHO cells, cotransfected, purified (MabSelect SuRe protein A, SEC); not shown: Fc (IgG1), C-terminal, kept; copies: 1 + 1

ALK2-ActRIIB-Fc = target: T4, ALK2-ActRIIB-Fc (human, UniProt Q04771 21-123; Q13705 19-133); experiment: as above; conditions: both partners purified
T4 construct: signal peptide in the construct; extracellular domain of human ActRIIB, residues 1 to 133; also called heterodimeric trap; ActRIIB-ALK2; source: CHO cells, cotransfected, purified (MabSelect SuRe protein A with pH gradient, SEC); not shown: Fc (IgG1), C-terminal, kept; copies: 1 + 1

[6] = target: B7; experiment: as above; conditions: both partners purified

T2 sequence (Q04771 21-123, one chain of several): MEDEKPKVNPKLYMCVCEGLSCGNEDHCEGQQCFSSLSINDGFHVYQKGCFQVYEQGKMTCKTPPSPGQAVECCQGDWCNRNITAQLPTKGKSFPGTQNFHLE
T1 sequence (P36894 24-152, one chain of several): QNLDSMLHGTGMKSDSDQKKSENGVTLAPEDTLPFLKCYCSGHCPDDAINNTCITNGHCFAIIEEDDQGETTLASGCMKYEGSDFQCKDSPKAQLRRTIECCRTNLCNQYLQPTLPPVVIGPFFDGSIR
T4 sequence (Q04771 21-123, one chain of several): as the sequence (Q04771 21-123, one chain of several) above
T3 sequence (P36894 24-152, one chain of several): as the sequence (P36894 24-152, one chain of several) above

B1: Recombinant human BMP6 (mammalian expressed, glycosylated), P22004 375-513 (ligand)
chain: SASSRRRQQSRNRSTQSQDVARVSSASDYNSSELKTACRKHELYVSFQDLGWQDWIIAPKGYAANYCDGECSFPLNAHMNATNHAIVQTLVHLMNPEYVPKPCCAPTKLNAISVLYFDDNSNVILKKYRNMVVRACGCH
modifications: here or on the partner: N-linked glycosylation at Asn454 (prehelix loop)
- koff [1]: 0.00234 s⁻¹
- kon [1]: 2.16e+07 M⁻¹ s⁻¹

B2: Recombinant human BMP6, mammalian expressed (glycosylated), P22004 375-513 (ligand)
chain: SASSRRRQQSRNRSTQSQDVARVSSASDYNSSELKTACRKHELYVSFQDLGWQDWIIAPKGYAANYCDGECSFPLNAHMNATNHAIVQTLVHLMNPEYVPKPCCAPTKLNAISVLYFDDNSNVILKKYRNMVVRACGCH
modifications: here or on the partner: N-linked glycosylation at Asn454 (prehelical loop)
- Kd (ActRIIB1-Fc (human)): 0.108 nM

B3: ActRIIB2-Fc (trap with two ActRIIB extracellular domains) (Fc fusion, human, UniProt Q13705-1 19-133, looked up)
chain: SGRGEAETRECIYYNANWELERTNQSGLERCEGEQDKRLHCYASWRNSSGTIELVKKGCWLDDFNCYDRQECVATEENPQVYFCCCEGNFCNERFTHLPEAGGPEVTYEPPPTAP
notes: signal peptide in the construct; ActRIIB (activin receptor type IIB), human, extracellular domain, residues 1 to 133, fused to an IgG1 Fc domain; The limits 1 to 133 are told for the ActRIIB-Fc fusions of this study in general; not shown: Fc (IgG1), C-terminal, kept
- koff [2]: 0.00119 s⁻¹
- kon [2]: 3.17e+07 M⁻¹ s⁻¹
- Kd [3]: 0.0489 ± 0.006 nM
- koff [3]: 0.00152 s⁻¹
- kon [3]: 3.12e+07 M⁻¹ s⁻¹

Binder: B4
- koff [4]: 0.000432 s⁻¹
- kon [4]: 1.23e+07 M⁻¹ s⁻¹
- koff [5]: 0.00147 s⁻¹
- kon [5]: 1.16e+07 M⁻¹ s⁻¹

B5: ActRIIB1-Fc (trap with a single ActRIIB extracellular domain) (Fc fusion)
chain: SGRGEAETRECIYYNANWELERTNQSGLERCEGEQDKRLHCYASWRNSSGTIELVKKGCWLDDFNCYDRQECVATEENPQVYFCCCEGNFCNERFTHLPEAGGPEVTYEPPPTAP
modifications: Printed range is 1-133; signal peptide 1-18 is removed. The deposited 9N4K/9MIR chains run to T134 before the linker. Human IgG1 Fc carrier is left out; the second Fc arm carries no receptor. …
- Kd [3]: 0.11 ± 0.0148 nM
- koff [3]: 0.00186 s⁻¹
- kon [3]: 1.7e+07 M⁻¹ s⁻¹

Binder: B6
- koff [4]: 0.000423 s⁻¹
- kon [4]: 1.39e+07 M⁻¹ s⁻¹
- koff [5]: 0.000528 s⁻¹
- kon [5]: 1.43e+07 M⁻¹ s⁻¹

Binder: B7
- Kd (ALK3-ActRIIB-Fc): 0.03 nM
- Kd (ALK2-ActRIIB-Fc): 0.0366 nM

B8: ActRIIB2-Fc (Fc fusion, human, UniProt Q13705-1 19-133, looked up)
chain: SGRGEAETRECIYYNANWELERTNQSGLERCEGEQDKRLHCYASWRNSSGTIELVKKGCWLDDFNCYDRQECVATEENPQVYFCCCEGNFCNERFTHLPEAGGPEVTYEPPPTAP
notes: signal peptide in the construct; extracellular domain of human ActRIIB, residues 1 to 133; also called trap containing two ActRIIB ECDs; source: CHO cells, purified, as previously described (17, 19); not shown: Fc (IgG1), C-terminal, kept
- Kd [6]: 0.0421 nM

B9: Deglycosylated BMP6 (BMP6 treated with PNGaseF) (ligand, human, UniProt P22004 375-513, looked up)
chain: SASSRRRQQSRNRSTQSQDVARVSSASDYNSSELKTACRKHELYVSFQDLGWQDWIIAPKGYAANYCDGECSFPLNAHMNATNHAIVQTLVHLMNPEYVPKPCCAPTKLNAISVLYFDDNSNVILKKYRNMVVRACGCH
modifications: glycosylation completely removed with PNGaseF
notes: mature domain of human BMP6; also called dgBMP6; source: bought: RnD (Cat. No. 507-BP), CHO; deglycosylated with rapid PNGase F (15 min at 50 °C)
- Kd (ALK3-ActRIIB-Fc): 0.0351 nM
- Kd (ALK2-ActRIIB-Fc): 0.127 nM
